Here are results for 3 proteins from article PMC5406781, “Myxococcus xanthus DK1622 Coordinates Expressions of the Duplicate groEL and Single groES Genes for Synergistic Functions of GroELs and GroES” (Frontiers in Microbiology, 2017).

First the molecules themselves.
B1: Myxococcus xanthus DK1622 GroEL2 (natural protein, UniProt Q1D3Y5 1-547, looked up)
chain: MAAKEIFFHQSAREAILRGVRTLSDAVAVTLGPKGRNVVIEKSFGSPTITKDGVTVAKEIDLENKFENMGAQMVKEVASKTSDKAGDGTTTATVLARAIYEEGLKLVAAGHSPMDLKRGIDKAVEVVVGELKSLSKPTADKKAITQVGTISANGDETIGAIIADAMEKVGKEGVITVEEAKGLETTLDVVEGMQFDRGYVSPYFVTNRERMEAVLEDPYILISEKKVSSMQDMIPLLEQVARSGKPLIIIADDIEGEALATLVVNKIRGVLNVCAVKAPGFGDRRKEMLQDIAVLTGGTVVSEDLGHKFETLTLTDLGRAKRVTVDKDNTTVVDGVGTKAAIEGRIKLIRTQIDSVTSDYDREKLQERLAKLVGGVAVINVGAATETEMKEKKARVEDALHATRAAVEEGIVPGGGVAYLRALPALEKLKPGGEQDFGVAIIRRALQEPLRKIASNAGVEGAVVINKVREGTGAFGYNARTEVYEDLEKAGVIDPTKVERTALQNAASVASLLLTTEAMVAERPKGKAKGGGAGAGMPDYGGDDMDY
notes: printed Mw 58.1 kDa; no His-tag added; UniProt may number the two paralogues the other way round (groL1 for the stand-alone gene); also called Cpn60; chaperonin GroEL; source: E. coli BL21(DE3), pET22b (pET22b-GroEL2-NoHis); purified (100-kDa cut-off concentration, Superdex 200) for the pull-down, in cell extract for native PAGE; copies: 14
B2: Myxococcus xanthus DK1622 GroEL1 (natural protein, UniProt Q1D2S1 1-549, looked up)
chain: MAKDILFDVRAREAILRGVNILADAVKVTLGPKGRNVVIEKSFGSPTITKDGVTVAKEIELENKFENMGAQMVKEVASKTSDVAGDGTTTATVLAQAIFREGAKLVAAGHNPMDIKRGIDKAVGAIVAELKKLAKPTKDKKEIAQVGTISANGDETIGTIIADAMEKVGKEGVITVEEAKGLETTLDVVEGMQFDRGYLSPYFVTDPERMEAALNDALILINEKKISSMKDLLPILEQVARAGKPLLIIAEDIEGEALATLVVNKIRGVLNVCAVKAPGFGDRRKAMLEDIATLTGGRMIAEDLGIKLDTITLQDLGRAKRITVDKDNTTIVDGAGGQQEIEARVKQIRAQIEETSSDYDREKLQERLAKLVGGVAVINVGAATETEMKEKKARVEDALNATRAAVEEGVVPGGGVAYIRCLKALDGLQLSGGEKFGVDIIRRAVEEPLRQIVGNGGLEGSVVVNKVKESSGPFGFNAATGTYEDLLAAGVIDPAKVSRTALQNAASVSSLMLTTEAMVAERPKEEKDLPAGGGMGGMGGMGGMGGMGM
notes: printed Mw 57.9 kDa; no His-tag added; UniProt may number the two paralogues the other way round (groL2 for the gene next to groES); also called Cpn60; chaperonin GroEL; source: E. coli BL21(DE3), pET22b (pET22b-GroEL1-NoHis); purified (100-kDa cut-off concentration, Superdex 200) for the pull-down, in cell extract for native PAGE; copies: 14
B3: Myxococcus xanthus DK1622 GroES without His-tag (natural protein, UniProt Q1D2S2 1-96, looked up)
chain: MKIRPLQDRLIVKRVAEENKTKGGLFIPDTAKEKPLEGKVIAVGNGKVQEDGKVRPLDIKAGDTILFSKYAGTEIKLDGEEHLILREEDVLGVIEK
notes: printed Mw 10.7 kDa; construct named NoHis; also called Cpn10; GroES-NoHis; source: E. coli BL21(DE3), pET28a-GroES-NoHis, in cell extract

The data set deals with the molecule itself. Briefly: native gel or EMSA; native PAGE (no SDS or mercaptoethanol, run in ice-water) of extracts of E. coli BL21(DE3) cells expressing GroEL1, GroEL2 or GroES alone, or GroEL1/GroEL2 co-expressed with GroES. (A gel shift assay detects complexes by their altered migration in electrophoresis.)
For B1, the “stoichiometry N” value worked out at 14. With B2, the “stoichiometry N” value was determined as 14. Regarding B3, the “stoichiometry N” value turned out to be 7.

Usually stoichiometry N stands for a count of units in the complex or per binding partner.
